Laboratory results: publication PMC11008285 (Cell reports, 2024)

Biological target: the molecule itself

B1: full-length CARD9 (natural protein, UniProt Q9H257 1-536, looked up)
chain: MSDYENDDECWSVLEGFRVTLTSVIDPSRITPYLRQCKVLNPDDEEQVLSDPNLVIRKRKVGVLLDILQRTGHKGYVAFLESLELYYPQLYKKVTGKEPARVFSMIIDASGESGLTQLLMTEVMKLQKKVQDLTALLSSKDDFIKELRVKDSLLRKHQERVQRLKEECEAGSRELKRCKEENYDLAMRLAHQSEEKGAALMRNRDLQLEIDQLKHSLMKAEDDCKVERKHTLKLRHAMEQRPSQELLWELQQEKALLQARVQELEASVQEGKLDRSSPYIQVLEEDWRQALRDHQEQANTIFSLRKDLRQGEARRLRCMEEKEMFELQCLALRKDSKMYKDRIEAILLQMEEVAIERDQAIATREELHAQHARGLQEKDALRKQVRELGEKADELQLQVFQCEAQLLAVEGRLRRQQLETLVLSSDLEDGSPRRSQELSLPQDLEDTQLSDKGCLAGGGSPKQPFAALHQEQVLRNPHDAGLSSGEPPEKERRRLKESFENYRRKRALRKMQKGWRQGEEDRENTTGSDNTDTEGS
- stoichiometry N: 4
